One molecule from paper PMC2175300 can be followed below.

Common to all, as to experiment: fluorescence anisotropy
In general terms: Polarisation of emitted light reports the rotation of a fluorescent probe.

In series [1] the target is FOXO3a-DBD K245A (Homo sapiens, UniProt O43524 158-253, K245A).
Series [2] addresses FOXO3a-DBD RRR/AAA (Homo sapiens, UniProt O43524 158-253, R248A;R249A;R250A).
The target in series [3] is FOXO3a-DBD 158-240 (Homo sapiens, UniProt O43524 158-240).
In series [4] the target is FOXO3a-DBD WT (Homo sapiens, UniProt O43524 158-253).
The target in series [5] is FOXO3a-DBD K242A (Homo sapiens, UniProt O43524 158-253, K242A).
Series [6] deals with FOXO3a-DBD S253D (Homo sapiens, UniProt O43524 158-253, S253D).
FOXO3a-DBD S253D, sequence (O43524 158-253 S253D): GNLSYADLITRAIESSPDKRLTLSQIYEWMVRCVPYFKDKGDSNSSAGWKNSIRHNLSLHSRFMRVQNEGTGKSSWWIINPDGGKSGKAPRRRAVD

FOXO3a-DBD WT, sequence (O43524 158-253): as the sequence (O43524 158-253 S253D) above, with D96S counted along it
FOXO3a-DBD RRR/AAA, sequence (O43524 158-253 R248A/R249A/R250A): as the sequence (O43524 158-253 S253D) above, with R91A, R92A, R93A, D96S counted along it
FOXO3a-DBD K242A, sequence (O43524 158-253 K242A): as the sequence (O43524 158-253 S253D) above, with K85A, D96S counted along it
FOXO3a-DBD 158-240, sequence (O43524 158-240): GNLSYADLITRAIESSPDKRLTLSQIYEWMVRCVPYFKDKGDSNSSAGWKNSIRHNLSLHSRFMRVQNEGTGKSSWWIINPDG
FOXO3a-DBD K245A, sequence (O43524 158-253 K245A): as the sequence (O43524 158-253 S253D) above, with K88A, D96S counted along it

B1: 26-bp FOXO consensus FA duplex (dsDNA)
DNA 1: CGCATCCTATGTAAACAACTCGAGTC
DNA 2: GACTCGAGTTGTTTACATAGGATGCG
As to B1, the Kd in series [1] came to 511 ± 63 nM; in series [2], 1180 ± 168 nM; in series [3], 1490 ± 197 nM; in series [4], 295 ± 26 nM; in series [5], 399 ± 25 nM; in series [6], 549 ± 55 nM.

As usually defined, the Kd is the free concentration of one partner at which half of the binding sites on the other are occupied at equilibrium, for simple one-to-one binding. A low value points to a tighter complex.
